# Data: the nanobody polyreactivity screen of Harvey et al. (2022)
# Assay: yeast display, Sf9 membrane polyspecificity reagent, FACS + sequencing; frameworks hold sequencing errors
# Summary of the method: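 Galactose-induced (36–48 hours) yeast carrying a synthetic nanobody display library were exposed to 10% biotinylated, detergent-solubilized Sf9 membrane reagent at 4 °C for 1 hour. FACS followed streptavidin microbead enrichment, using low and high (top ~1%) gates for expression (anti-HA) and reagent binding (streptavidin). Colony PCR, MiSeq 2 × 250 sequencing and CDR-length filtering followed. Labels for polyreactivity reflect the gate of origin.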
row,Sequence,polyreactivity (PSR sort gate)
1,QVQLVESGGGLVQAGGSLRLSCDASGSIFGINVMGWYRQAPGTERELVARINDGADTNYADSVKGRFTISRDNAKNTVYLQMNSLKPEDTAVYYCAKPYYDGRTHFDSWGQGTQVTVSS,low polyreactivity
2,QVQLVESGGGLVQAGGSLRLSCDASGSIFGPYARGWYRQEPGKERELVAAITWTGGRTYYADSVKGRFTISRDNAKNTVYLQMNSLQPEDTAVYYFAADYSPSTWDLYYTLYYYWGQGTQVTVSS,low polyreactivity
3,QVQLVESGGGLVQAGGSLRLSCDASGSIFQAYAIGWYRQAPGKEREFVAVITWGGGSTSYADSVKGRFTISRDNAKNTVYLQMNSLKPEDTAVYYCNADSQEWIWLYEGYDYWGQGTQVTVSS,low polyreactivity
4,QVQLVESGGGLVQAGGSLRLSCDASGSIFSTYVMGWYRQAPGKERELVAAITVSVGSTYYADSVKGRFTISRDNAKNTVYLQMNSLKPEDTAVYYCAAGSYSRYLYSLYFDFDYWGQGTQVTVSS,low polyreactivity
5,QVQLVESGGGLVQAGGSLRLSCDASGSIFYIYAMGWSRQAPGKERELVATISGSGGSTHYADSVKGRFTISRDNAKNTVYLQMNSLKPEDTAVYYCDADVLPYGYYWGQGTQVTVSS,low polyreactivity
6,QVQLVESGGGLVQAGGSLRLSCDASGSIFYRNVMGWYRQAPGKERELVAAISGRGGSTYYADSVKGRFTISRDNAKNTVYLQMNSLKPEDTAVYYCAADKGYRYISYYYWGQGTQVTVSS,high polyreactivity
7,QVQLVESGGGLVQAGGSLRLSCDASGSIIIGNSMGWYRQAPGKERELVAVINGSDGTTYYADSVKGRFTISRDNAKNTVYLQMNSLKPEDTAVYYCNADFIDPSVYDYNYWGQGTQVTVSS,low polyreactivity
8,QVQLVESGGGLVQAGGSLRLSCDASGSILRYYAMGWYRQAPGKERELVADISTSGGSTYYADSVKGRFTISRDNAKNTVYLQMNSLKPEDTAVYYCAKPWYSSGFDYWGQGTQVTVSS,high polyreactivity
9,QVQLVESGGGLVQAGGSLRLSCDASGSTFAPNTMGWYRQAPGKVREFVADISFSGGSTYYADSVKGRFSISRDNAKNTVYLQMTSRKPEDTAVYYCNAYYSYWFTQYDYWGQGTQVTVSS,high polyreactivity
10,QVQLVESGGGLVQAGGSLRLSCDASGSTFDSYAMGWYRQAPGKERELVAAINQGGGSTYYADSVKGRFTISRDNAKNTVYLQMNSLKPEDTAVYYCGADRSGSFYKLDYWGQGTQVTVSS,low polyreactivity
11,QVQLVESGGGLVQAGGSLRLSCDASGSTFGRNAMGCYRQAPGKESELVAAITASGGRTYYADSVKGRFTISRDNAKNTVYLQMNSLKPEDTAVYYCAAASRVGFLYYYWGQGTQVTLSS,low polyreactivity
12,QVQLVESGGGLVQAGGSLRLSCDASGSTFKNYAMGWYRQAPGKERELVAGINWYGGRTYYADSVKGRFTISRDNAKNTVFLQMNSLKPEDTAVYYCAAALPGYGDYYYWGQGTQVTVSS,high polyreactivity
13,QVQLVESGGGLVQAGGSLRLSCDASGSTFRANAMGWYRQAPGKECELVAAISQSGGITYYADSVKGRFTISRDNAKNTVYLQMNCLKPEDTAVYYCAAKGSYSYDVGGPVYQRTYGYWGQGTQVTVSS,high polyreactivity
14,QVQLVESGGGLVQAGGSLRLSCDASGSTFRHYAMGWYRQAPGKERELVAAISSTGGSTYYADSVKGRFTISRDNAKNTVYLQMNSLKPEDTAVSYCAARRLYWGQGTQVTVSS,high polyreactivity
15,QVQLVESGGGLVQAGGSLRLSCDASGSTFTRYVMGGYRQPPGKERELVAVISSSAGSTYYADSVKGRFTISRDNAKNTVYLQMNSLKPEDTAVYYCAARYSAKHYGYGYWGQGTQVTVSS,high polyreactivity
16,QVQLVESGGGLVQAGGSLRLSCDASGTFYGKTMGWYRQAPGKERELVAVISIDGSTNYADSVKGRFTISRDNAKNTVYLQMNSLKPEDTAVYYCNARNQWRTVGKYDYWGQGTQVTVSS,low polyreactivity

row,Sequence,polyreactivity (PSR sort gate)
1,QVQLVESGGGLVQAGGSLRLSCDPSGSIFYRNAMVWYRPAPGKERELVATITVNGGRTYYADSVKGRFTISRDNAKNTVYLQMNSLKPEDTAVYYCAKDVHRWYPYDYWGQGTQVTVSS,low polyreactivity
2,QVQLVESGGGLVQAGGSLRLSCDPSGYTLVDYAMGWYRQAPGKESELVAGISSGDSTYYADSVKGRFTISRDNAKNTVYLQMNSLKPEDTAVYYCNAGLKTIFLLYRWTLFDYWGQGTQVTVSS,high polyreactivity
3,QVQLVESGGGLVQAGGSLRLSCDSSGSIFGYYAMGWYRQAPGKERELVAAITSGGNTYYADSVKGRFTISRDNAKNTVYLQMNSLKPEDTAVYYCNAVWRTRDYDYWGQGTQVTVSS,low polyreactivity
4,QVQLVESGGGLVQAGGSLRLSCDSSGSIFYYYAMGWYRQAPGKERELVAAISRRGGSTYYADSVKVRFTISRDNAKNTVYLQMNSLKPVDTAVYYCAADSPRGYDYWGQCTQVTVSS,high polyreactivity
5,QVQLVESGGGLVQAGGSLRLSCEASGRIFGWYAMGWYRQAPGNERELVAALTNSGGSTYYADSVKGRFTISRDYEKNTVYFQMNRLKPEDTGVYFCAAESWIRRWYGGGKKYEYWGQGTQVTVSS,high polyreactivity
6,QVQLVESGGGLVQAGGSLRLSCGASGFTFRSYAMGWYRQAPGKEGELVATISSGGTTKYADSVQGRFTISRDNANNTVYLQMNSLKPEDTAVYYCAARTSVLGRNFNYWGQGTQVTVSS,high polyreactivity
7,QVQLVESGGGLVQAGGSLRLSCGASGFTFYGYAMGWYRHGPGKESELVAAITGSGARTNYADSVKGRFTISRDKAKNTVYLQMNSLKPEDTAVYYCNKVGVTRDGSTYRVREDDYWGQGTQVTVSS,high polyreactivity
8,QVQLVESGGGLVQAGGSLRLSCGASGFTIQRNAIVWSRQAPGKERELVAAITRGGSTYYADSVKGRFTISRDNAKNTVYLQMNSLKPEDTAVYYCAKRIFSSYIGYGYWGQGTQVTVSS,high polyreactivity
9,QVQLVESGGGLVQAGGSLRLSCGASGLTFVWYGMGWYRQAPGKERELVAAITRGGSTYYADSVKGRFTISRDNAKNTVYLQMNSVKPEDTAVYYCAARYKYTGYDYWGQGTQVTVSS,high polyreactivity
10,QVQLVESGGGLVQAGGSLRLSCGASGRIFRYYAMGWYRQAPGTDREVVAAITQRGGSTYADSVKGRFTISRDNAKKTVYLQMNSLKPEDTADYSCPYRGSFLYDYWGQGTQVTVSS,low polyreactivity
11,QVQLVESGGGLVQAGGSLRLSCGASGRIFSYYAMGWYRQAPGKERELVAAINTGGDTYYADSVKGRFTISRDNAKNTVYLQMNSLKPEDTAVYYCAAAYGWGYYYGYGYTPTYDYWGQGTQVTVSS,low polyreactivity
12,QVQLVESGGGLVQAGGSLRLSCGASGRIIGYNAMGWYRQAPGKERELVAVISTSGTITYYADSVKGRFTISRDNAKNTVYLQMNRLKPEDTAVYYCAARYYQRANGFGYCGQGTQVTVSS,low polyreactivity
13,QVQLVESGGGLVQAGGSLRLSCGASGRTFRPYAMGWYRQEPGKERELVAAITGGTRTYYADSVKGRFTISRDNAKNTVYLQMNSLKAEDTAVYYCAVGWAGRYDYWGQGTQVTVSS,low polyreactivity
14,QVQLVESGGGLVQAGGSLRLSCGASGSNFWPNTMGWYRPAPGKERELVAGISFGGGSTYFADSVKGRFTISRDNAKNTVYLEMNRQKPEDTAVYYCNADDPGYAGPWYWVKYDYWGKGTQVTVSS,low polyreactivity
15,QVQLVESGGGLVQAGGSLRLSCGASGSTFGTYAMGWYRQAPGKERELVAAISWSGGSTYYADSVKGRFTISRDNAKNTVYLQMNSLNPEDTAVYWGQGTQVTVSS,low polyreactivity
16,QVQLVESGGGLVQAGGSLRLSCGASGSTFWWNAMGWYRQAPGKEREFVAAITARGTSTYYADSVKGRFTISRDNAKNTVYLQMNRLKPEDTAVYYCNTRLYGRYYSWYDYWGQGTQVTVSS,high polyreactivity
